# Data reported in the supplement of paper PMC7125110.
# ± gives the standard error. Fewer inactive variants are shown than the library holds.
# B1: glmS ribozyme (parent)
# chain: AUAAAAGCGCCAGAACUACAGAAAUGUAGUUGACGAGGAGGAGGUUUAUCGAAUUUUCGGCGGAUGCCUCCAAA
# What was measured:
# Details in all cases: with glucosamine-6-phosphate
# glucosamine-6-phosphate [1] = variants of: B1; assay: self-cleavage kobs at 160 uM GlcN6P; higher = faster cleavage; RNA array
# In short: (§1)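 Barcoded ribozyme variants on sequenced MiSeq chips were transcribed in situ by E. coli RNA polymerase and followed at 37 °C through a hybridised Cy3 probe. Glucosamine-6-phosphate at 40 μM to 10 mM in HEPES/KCl/Mg(OAc)2 buffer was flowed in, and tiles were imaged over ~14 h. Signals were normalised to baseline and to non-cleaving reference variants, and per-tile medians were fit to one- or two-exponential decays to give kobs. Weighted Michaelis–Menten fits across concentrations gave kcat and KM.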
# glucosamine-6-phosphate [2] = variants of: B1; assay: self-cleavage kobs at 640 uM GlcN6P; higher = faster cleavage; RNA array
# In short: as §1
# glucosamine-6-phosphate [3] = variants of: B1; assay: self-cleavage kobs at 2500 uM GlcN6P; higher = faster cleavage; RNA array
# In short: as §1
# glucosamine-6-phosphate [4] = variants of: B1; assay: self-cleavage kobs at 10000 uM GlcN6P; higher = faster cleavage; RNA array
# In short: as §1
Variant,self-cleavage kobs at 160 uM GlcN6P (glucosamine-6-phosphate [1]) [s⁻¹],self-cleavage kobs at 640 uM GlcN6P (glucosamine-6-phosphate [2]) [s⁻¹],self-cleavage kobs at 2500 uM GlcN6P (glucosamine-6-phosphate [3]) [s⁻¹],self-cleavage kobs at 10000 uM GlcN6P (glucosamine-6-phosphate [4]) [s⁻¹]
AUAAAAGCGCCAGAACUACAGAAAUGUAGUUGACGAGACUGAAGUUUAGCGAACUUUCGGCGGAUGCCUCCAAA,< 1e-05,< 1e-05,< 1e-05,–
AUAAAAGCGCCAGAACUACAGAAAUGUAGUUGACGAGCAGGAGGUUUAUCUAAUUUCCGGCGGAUGCCUCCAAA,< 1e-05,–,< 1e-05,–
AUAAAAGCGCCAGAACUACAGAAAUGUAGUUGACGAGAUGGAGGUUUAUCGAAUUUUCGGCGGAUGCCUCCAAA,< 1e-05,< 1e-05,–,–
AUAAAAGCGCCAGAACUACAGAAAUGUAGUUGACGAUCAGGAGGUUUAUCGAAUUUUCGGCGGAUGCCUCUAAA,< 1e-05,< 1e-05,–,–
AUAAAAGCGCCAGAACUACAGAAAUGUAGUUGACGAGCAGCAGGUUUAUCGAAUUUUCGGCGGAUGCCUCCAAA,< 1e-05,< 1e-05,< 1e-05,–
AUAAAAGCGCCAGAACUACAGAAAUGUAGUUGACGAGAAGGAGGUUUAUCGAAGUUUCGGCGGAUGCAUCCAAA,5.08e-05 ± 2e-05,–,–,–
AUAAAAGCGCCAGAACUACAGAAAUGUAGUUGACGAUGAGGAGAUUUAUCGAAUUUUCGGCGGAUUCCUCCAAA,< 1e-05,–,–,–
AUAAAAGCGCCAGAACUACAGAAAUGUAGUUGACGAUGAGGAGAUUUAUCGUUUUUUCGGCGGAUGCCUCCAAA,< 1e-05,< 1e-05,< 1e-05,–
AUAAAAGCGCCAGAACUACAGAAAUGUAGUUGACGAUGAGGAGGUUUAUCGAAUUUUCGGCGGAUGCCUUAAAA,< 1e-05,–,–,–
AUAAAAGCGCCAGAACUACAGAAAUGUAGUUGACGAGCAGGAGGUUUAUCGAAUAUUCGGCGGAUGCCUCCAAA,< 1e-05,< 1e-05,–,–
AUAAAAGCGCCAGAACUACAGAAAUGUAGUUGACGAGAAGAAGGCUUAUCGGAUUUUCGGCGGAUGCCUCCAAA,< 1e-05,< 1e-05,–,–
AUAAAAGCGCCAGAACUACAGAAAUGUAGUUGACGAGCAGGAGGUUUAUCGAAUUUUCGGUGGAUGCCUCUAAA,< 1e-05,–,–,–
AUAAAAGCGCCAGAACUACAGAAAUGUAGUUGACGAGAAGGAGGUUUAUCGAAUUUUCGGCGGGUGCCUCCAAA,< 1e-05,–,–,–
AUAAAAGCGCCAGAACUACAGAAAUGUAGUUGACGAGUAGGUGGUUUAUCGAAUUUUCGGCUGAUGCCUCCAAA,< 1e-05,< 1e-05,< 1e-05,–
AUAAAAGCGCCAGAACUACAGAAAUGUAGUUGACGAGCAGUAGGUUUAUCGAAUUUUCGGCGCAUGCCUCCAAA,< 1e-05,–,< 1e-05,–
AUAAAAGCGCCAGAACUACAGAAAUGUAGUUGACGACGAGGAGGUUUAUCGAAUUUUCGGCGGACGCCUCCAAA,< 1e-05,< 1e-05,< 1e-05,–
AUAAAAGCGCCAGAACUACAGAAAUGUAGUUGACGAGUAGGAGGUUUAUCGUAUUUUCGGCGGAUGCCUCCAAA,< 1e-05,< 1e-05,–,< 1e-05
AUAAAAGCGCCAGAACUACAGAAAUGUAGUUGACGAGUAUGAGGUUUAUCGACUUUUCGGGGGGUGCAUCCAAA,< 1e-05,< 1e-05,–,–
